Earlier results as cited in article PMC4472561 (The FEBS journal, 2015).

Columns and labels:
[1] = test system: CD8^+ cytotoxic effector memory T cells; conditions: in words; ref [25]
neural progenitor cells = conditions: in words; ref [24]
Kv1.1 = Kv1.1 (UniProt Q09470)
Chain of UniProt Q09470 (Q09470 whole entry): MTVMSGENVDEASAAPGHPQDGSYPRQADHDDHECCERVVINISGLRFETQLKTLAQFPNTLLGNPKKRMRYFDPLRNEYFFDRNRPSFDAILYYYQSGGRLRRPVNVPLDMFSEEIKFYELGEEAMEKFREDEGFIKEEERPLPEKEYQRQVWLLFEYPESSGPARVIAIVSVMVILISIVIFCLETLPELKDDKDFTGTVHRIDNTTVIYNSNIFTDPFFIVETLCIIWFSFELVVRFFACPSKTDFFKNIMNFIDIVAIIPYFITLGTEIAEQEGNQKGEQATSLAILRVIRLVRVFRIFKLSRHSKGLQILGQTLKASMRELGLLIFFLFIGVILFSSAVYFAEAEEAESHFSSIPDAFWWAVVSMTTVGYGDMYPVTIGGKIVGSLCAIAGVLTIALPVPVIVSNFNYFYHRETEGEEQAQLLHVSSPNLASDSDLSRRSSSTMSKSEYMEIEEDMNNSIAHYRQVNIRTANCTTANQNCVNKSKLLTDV

Substance	proliferation of CD8+ cytotoxic effector memory T cells and secretion of granzyme B [1]	differentiation of neural progenitor cells into neurons (neural progenitor cells)	Kd (Kv1.1) [nM]
ChTx	blocked the proliferation of CD8^+ cytotoxic effector memory T cells and their secretion of granzyme B	–	–
MgTx (TIINVKCTSPKQCLPPCKAQFGQSAGAKCMNGKCKCYPH; UniProt P40755 1-39, looked up)	blocked the proliferation of CD8^+ cytotoxic effector memory T cells and their secretion of granzyme B	increased the differentiation of neural progenitor cells into neurons and enhanced neuron-regeneration	–
ShK (from UniProt P29187)	–	–	0.016
